This note sets out measurements from article doi:10.1101/2022.07.01.498528 (bioRxiv, 2022).

The target of assay [1] is VIM-4 β-lactamase (class B) (Pseudomonas aeruginosa, VIM-4, UniProt Q8KRJ3, strain). The assay is described as follows: BLI.
Assay [2] has as its target AmpC P99 of Enterobacter cloacae (class C β-lactamase) (Enterobacter cloacae P99, UniProt P05364). The experiment in a line: BLI. (In BLI a coated tip is dipped into the sample, and binding shifts an interference pattern.)
Assay [3] addresses TEM-1 β-lactamase (class A) (Escherichia coli (assumed), TEM-1, UniProt P62593). The assay is described as follows: BLI.
The target of assay [4] is OXA-48 β-lactamase (class D) (Klebsiella pneumoniae, OXA-48, UniProt Q6XEC0). The experiment in a line: BLI.
The target of assay [5] is CMY-1 β-lactamase (class C) (Klebsiella pneumoniae, CMY-1, UniProt P71420, strain). The experiment in a line: BLI.
Another assay has as its target CMY-42 β-lactamase (Escherichia coli entry (host isolate …, UniProt F4YXC2, strain)). The assay is described as follows: ELISA. (In general: An ELISA detects its analyte on a solid surface through an enzyme-linked reagent.)
Another assay has as its target CMY-60 β-lactamase (Escherichia coli entry (host isolate …, UniProt G3F7G8, strain)). The assay is described as follows: ELISA.
Another assay has as its target CMY-16 β-lactamase (Proteus mirabilis entry (host isolate …, UniProt Q4LCT4, strain)). The assay is described as follows: ELISA.
The next assay deals with CMY-58 β-lactamase (Escherichia coli entry (host isolate …, UniProt F1C3E3, strain)). The assay is described as follows: ELISA.
The next assay has as its target CMY-61 β-lactamase (Escherichia coli entry (host isolate …, UniProt G3F7G9, strain)). The assay is described as follows: ELISA.

Sequence of OXA-48 β-lactamase (class D) (Q6XEC0 23-265): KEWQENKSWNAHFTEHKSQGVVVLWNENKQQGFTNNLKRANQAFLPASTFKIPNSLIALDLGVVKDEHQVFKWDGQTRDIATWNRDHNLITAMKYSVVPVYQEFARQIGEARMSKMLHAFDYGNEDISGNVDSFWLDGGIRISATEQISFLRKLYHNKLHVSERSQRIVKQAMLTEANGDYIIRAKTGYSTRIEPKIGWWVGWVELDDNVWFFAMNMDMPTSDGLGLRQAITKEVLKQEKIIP
Sequence of AmpC P99 of Enterobacter cloacae (class C β-lactamase) (P05364 21-381): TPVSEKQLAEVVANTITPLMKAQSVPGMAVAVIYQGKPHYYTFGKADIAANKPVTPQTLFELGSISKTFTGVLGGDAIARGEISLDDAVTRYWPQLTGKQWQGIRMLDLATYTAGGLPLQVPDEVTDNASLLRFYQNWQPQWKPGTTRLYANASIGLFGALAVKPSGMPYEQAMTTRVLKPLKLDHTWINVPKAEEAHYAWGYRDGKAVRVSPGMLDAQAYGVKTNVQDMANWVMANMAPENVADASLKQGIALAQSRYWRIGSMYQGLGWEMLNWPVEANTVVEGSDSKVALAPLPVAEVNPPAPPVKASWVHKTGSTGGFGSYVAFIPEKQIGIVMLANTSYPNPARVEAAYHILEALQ
Sequence of TEM-1 β-lactamase (class A) (P62593 24-286): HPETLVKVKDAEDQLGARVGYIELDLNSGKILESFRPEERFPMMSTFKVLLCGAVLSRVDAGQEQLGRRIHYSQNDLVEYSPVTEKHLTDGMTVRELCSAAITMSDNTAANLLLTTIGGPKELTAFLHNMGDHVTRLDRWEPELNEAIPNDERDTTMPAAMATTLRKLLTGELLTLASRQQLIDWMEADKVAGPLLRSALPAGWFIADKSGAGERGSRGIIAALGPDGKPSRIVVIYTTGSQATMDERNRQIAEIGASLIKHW

B1: VHH cAb_(CMY-2)(250) (VHH)
VHH: QVQLVESGGGLVQPGGSLRLSCAASGSIFSIYGMGWYRQAPGKQRELVAEITSGGSTNYADSVKGRFTISRDNAKNTVYLQMNSLNPEDTAVYYCNADGTMWGAGDYWGQGTQVTVSS
For B1, the binding result in [1] is recorded as “no binding (tested: 500 nM)”; in assay [2], “binds”; in assay [3], “no binding (tested: 500 nM)”; in assay [4], “no binding (tested: 500 nM)”.

B2: VHH cAb_(CMY-2)(272) (VHH)
VHH: QVQLVESGGGLVQPGGSLRLSCAASGSIFMIYAMGWYRQAPGKQRELVADITSGGSTDYTDSVKGRFTISRDKNTVYLQMNSLKPEDTAVYYCNADHGPGFGYDYWGQGTQVTVSS
Regarding B2, the binding result in [1], in assay [5], in assay [2], in assay [3] and in assay [4] was “no binding (tested: 500 nM)” each time.

B3: VHH cAb_(CMY-2)(254) (VHH)
VHH: QVQLVESGGGMVQPGGSLRLSCAASGFTFSNYDMSWVRRAPGKGPEWVSTINTGGGSTSYADSVKGRFTISRDNAKNTLYLQMNSLKPEDTALYYCTIDRGLHYSDLGEYDYWGQGTQVTVSS
For the molecule B3, the binding result in [1] is on record as “no binding (tested: 500 nM)”; in assay [5], “no binding (tested: 500 nM)”; in assay [2], “no binding (tested: 500 nM)”; in assay [3], “no binding (tested: 500 nM)”; in [4] it was “no binding (tested: 500 nM)”; in the assay with CMY-42 β-lactamase, “binds”. The binding result with CMY-60 β-lactamase, in the assay with CMY-16 β-lactamase, with CMY-58 β-lactamase and with CMY-61 β-lactamase was “binds” throughout.
